Target: the molecule itself
Test: crystal structure

B1: MukB-D (MukB construct 566–863: hinge domain with part of the coiled coil domain) (domain or fragment, Escherichia coli, UniProt P22523 566-863, looked up)
chain: IASLSDSVSNAREERMALRQEQEQLQSRIQSLMQRAPVWLAAQNSLNQLSEQCGEEFTSSQDVTEYLQQLLEREREAIVERDEVGARKNAVDEEIERLSQPGGSEDQRLNALAERFGGVLLSEIYDDVSLEDAPYFSALYGPSRHAIVVPDLSQVTEHLEGLTDCPEDLYLIEGDPQSFDDSVFSVDELEKAVVVKIADRQWRYSRFPEVPLFGRAARESRIESLHAEREVLSERFATLSFDVQKTQRLHQAFSRFIGSHLAVAFESDPEAEIRQLNSRRVELERALSNHENDNQQQR
Does B1 bind?
Result: binds

Source: publication PMC4335309 (Journal of molecular biology, 2009)
